Results taken from PMC9293779, “Elucidation of binding preferences of YEATS domains to site-specific acetylated nucleosome core particles” (The Journal of Biological Chemistry, 2022).

What was measured:
Assay in all cases: ITC
[1] = molecular target: Unmodified H3 (1–19) (Homo sapiens); conditions: domain or fragment; chains chain; modification not given
[2] = molecular target: T1, H3K14ac (1–19) peptide (Homo sapiens); conditions: domain or fragment; chains chain; modification not given; acetyl-Lys14 (mature histone numbering; entry K15); terminal caps or added residues not given
T1 chain: ARTKQTARKSTGGKAPRKQ

[3] = molecular target: T2, H3K4ac (1–19) peptide (Homo sapiens); conditions: domain or fragment; chains chain; modification not given; acetyl-Lys4 (mature histone numbering; entry K5); terminal caps or added residues not given
T2 chain: ARTKQTARKSTGGKAPRKQ

- Kd [1]: > 1000 µM
- Kd [2]: > 1000 µM
- Kd [3]: 320 µM
B1: AF9-YEATS domain (residues 1–138) for X-ray analysis and ITC, P42568 1-138 (protein)
chain: MASSCAVQVKLELGHRAQVRKKPTVEGFTHDWMVFVRGPEHSNIQHFVEKVVFHLHESFPRPKRVCKDPPYKVEESGYAGFILPIEVYFKNKEEPRKVRFDYDLFLHLEGHPPVNHLRCEKLTFNNPTEDFRRKLLKA
